Patent US20190160169A1 (JULIUS MAXIMILIANS UNIVERSIT T W RZBURG, published 2019)

Assays:
[1] = target: T1, recombinant mature human GDF-15 protein (derived from Baculovirus-transfected HighFive insect cells) (human, UniProt Q99988 197-308); experiment: SPR (Biorad ProteOn XPR36), KD=koff/kon
T1 construct: also called recombinant human GDF-15; GDF-15 derived from insect cell expression
T1 sequence: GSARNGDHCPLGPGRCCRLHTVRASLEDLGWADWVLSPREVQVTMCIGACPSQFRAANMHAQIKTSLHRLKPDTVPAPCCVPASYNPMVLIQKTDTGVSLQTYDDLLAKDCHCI
Description: (§1) For preparing the biosensors recombinant mature human GDF-15 protein was immobilized on flow cells 1 and 2. On one flow cell recombinant GDF-15 derived from Baculvirus-transfected insect cells (HighFive insect cells) and on the other recombinant protein derived from expression in E. coli was used. The GLC sensor chip was activated using Sulfo-NHS (N-Hydroxysulfosuccinimide) and EDC (1-Ethyl-3-[3-dimethylaminopropyl]carbodiimide hydrochloride) (Biorad ProteOn Amine Coupling Kit) according to the manufacturer's recommendation, the sensor surface was subsequently loaded with the proteins up to a density of about 600 RU (1 Ru=1 pg mm⁻²). The non-reacted coupling groups were then quenched by perfusion with 1M ethanolamine pH 8.5 and the biosensor was equilibrated by perfusing the chip with running buffer ([…], 150 mM NaCl, 3.4 mM EDTA, 0.005% Tween-20, pH 7.4, referred to as HBS150). […] The resulting sensogram was analyzed using the software ProteOn Manager version 3.0. […] For the association rate constant a value of 5.4±0.06×10⁵ M⁻¹ s⁻¹ (kₒₙ) and for the dissociation rate constant a value of 4.3±0.03×10⁻⁴ s⁻¹ (koff) could be determined (values are for the interaction of anti-human GDF-15 mAb-B1-23 with GDF-15 derived from insect cell expression).

[2] = target: recombinant mature human GDF-15 protein derived from expression in E. coli (human) (UniProt Q99988); experiment: SPR (Biorad ProteOn XPR36), GDF-15 immobilised on GLC chip, antibody as analyte
[3] = target: T1, recombinant mature human GDF-15 protein …; experiment: SPR (Biorad ProteOn XPR36), GDF-15 immobilised on GLC chip, antibody as analyte, 25 °C, 1:1 Langmuir
Description: as §1

B1: monoclonal anti-human GDF-15 mAb-B1-23 (antibody, V domains shown)
VH: QVKLQQSGPGILQSSQTLSLTCSFSGFSLSTSGMGVSWIRQPSGKGLEWLAHIYWDDDKRYNPTLKSRLTISKDPSRNQVFLKITSVDTADTATYYCARSSYGAMDYWGQGTSVTVSS
VL: DIVLTQSPKFMSTSVGDRVSVTCKASQNVGTNVAWFLQKPGQSPKALIYSASYRYSGVPDRFTGSGSGTDFTLTISNVQSEDLAEYFCQQYNNFPYTFGGGTKLEIK
notes: also called antibody B1-23; monoclonal mouse antibody GDF-15
- Kd [1]: ~0.79 nM
- deviation of rate constants against GDF-15 derived from insect cells [2]: 45%
- difference of affinity values against GDF-15 derived from insect cells [2]: < 2 fold
- koff [3]: 0.00043 s⁻¹
- kon [3]: 540000 M⁻¹ s⁻¹
